The values below come from article PMC10534222.

For orientation: Kd means the free concentration of one partner at which half of the binding sites on the other are occupied at equilibrium, for simple one-to-one binding.

Test [1] concerns the target FITC-labelled peptide (FITC)…. The experiment in a line: fluorescence polarisation. Background: Polarisation of emitted light reports the rotation of a fluorescent probe.
The target of test [2] is chicken Tapasin (chTapasin), luminal domain (chicken (Gallus gallus)). The experiment in a line: SPR. In general terms: Surface plasmon resonance follows binding to a sensor surface in real time, without labels.
Test [3] has the same target. The experiment in a line: NMR titration.

In test [1], “empty open B*37:01/chTapasin complex (from UniProt P61769 21-119)” displayed an equilibrium dissociation constant (Kd) of 5.5 nM.

With “open HLA-B*37:01 (heavy chain G120C, β2m H31C, interchain disulfide), empty (UV-irradiated) (from UniProt P61769 21-119) (complex)”, the values for the Kd in test [1] and in test [2] were 6.16 nM and 1200 nM, respectively. Moreover, the lifetime of the complex in test [3] is greater than 200 ms.
